The target of assay [1] is polyclonal human IgG (Gammanorm, Octapharma) (human). Description: breakthrough on ligand-coupled agarose column; 1 mg/ml IgG in 20 mM PBS + 0.15 M NaCl pH 7.4; residence time 6 min; ligand density 6.7 mg/ml.
Assay [2] shares this target. Description: gradient elution pH 6 to pH 3, 0.1 M citrate, from ligand-coupled agarose column.
The target is the same in assay [3]. In words: breakthrough on ligand-coupled agarose column; 1 mg/ml IgG in 20 mM PBS + 0.15 M NaCl pH 7.4; residence time 2.4 min; ligand density 6.7 mg/ml.
Assay [4] shares this target. Description: breakthrough on ligand-coupled agarose column; 1 mg/ml IgG in 20 mM PBS + 0.15 M NaCl pH 7.4; residence time 6 min; ligand density 6.9 mg/ml.
The target of assay [5] is mAb (Table 2, column 'pH mAb'). Description: gradient elution pH 6 to pH 3, 0.1 M citrate, from ligand-coupled agarose column; about 10 mg cell culture supernatant loaded.
The target of assay [6] is polyclonal human IgG (Gammanorm, Octapharma) (human). In words: breakthrough on ligand-coupled agarose column; 1 mg/ml IgG in 20 mM PBS + 0.15 M NaCl pH 7.4; residence time 2.4 min; ligand density 6.9 mg/ml.
Assay [7] shares this target. Description: breakthrough on ligand-coupled agarose column; 1 mg/ml IgG in 20 mM PBS + 0.15 M NaCl pH 7.4; residence time 6 min; ligand density 5.3 mg/ml.
Assay [8] shares this target. In words: breakthrough on ligand-coupled agarose column; 1 mg/ml IgG in 20 mM PBS + 0.15 M NaCl pH 7.4; residence time 2.4 min; ligand density 5.3 mg/ml.

Regarding “Comparative prototype Z(H18S)4 (designed binder)”, in assay [1], the Qb10% (dynamic binding capacity at 10% breakthrough) was determined as 55 mg/ml resin and the Qb80% (dynamic binding capacity at 80% breakthrough) was found to be 67.5 mg/ml resin. In addition, in assay [2], the elution pH at peak apex, pH hIgG (first peak) is 5.1 pH and the elution pH at peak apex, pH hIgG (second peak) was 4.61 pH. Further, in assay [3], the Qb10% (dynamic binding capacity at 10% breakthrough) was 37 mg/ml resin and the Qb80% (dynamic binding capacity at 80% breakthrough) was determined as 62.2 mg/ml resin.

In the case of Mutant Z(H18S,N28A)4 (designed binder), in assay [2], the elution pH at peak apex, pH hIgG (first peak) is 5.68 pH and the elution pH at peak apex, pH hIgG (second peak) amounted to 5.15 pH. Besides, in assay [4], the Qb10% (dynamic binding capacity at 10% breakthrough) turned out to be 45.9 mg/ml resin and the Qb80% (dynamic binding capacity at 80% breakthrough) amounted to 59.1 mg/ml resin. The elution pH at peak apex, pH mAb in assay [5] was 5.05 pH. In assay [6], the Qb10% (dynamic binding capacity at 10% breakthrough) was 35.2 mg/ml resin and the Qb80% (dynamic binding capacity at 80% breakthrough) came to 56 mg/ml resin.

For Mutant Z(H18S,P57I)4 (designed binder), in assay [2], the elution pH at peak apex, pH hIgG (first peak) was found to be 5.44 pH and the elution pH at peak apex, pH hIgG (second peak) was determined as 4.91 pH. For the same substance, in assay [7], the Qb10% (dynamic binding capacity at 10% breakthrough) was determined as 47 mg/ml resin and the Qb80% (dynamic binding capacity at 80% breakthrough) was 58 mg/ml resin. For the same substance, in assay [8], the Qb10% (dynamic binding capacity at 10% breakthrough) stood at 35.6 mg/ml resin and the Qb80% (dynamic binding capacity at 80% breakthrough) was 56 mg/ml resin. The substance further had an elution pH at peak apex, pH mAb in assay [5] of 4.71 pH.
